Broadly, the EC50 is the concentration at which the effect is half-maximal. A high value points to a less potent agent.

This assay addresses SARS-CoV-2 Spike S1 protein, B.1.351 (S. African) variant (SARS-CoV-2, UniProt P0DTC2 16-685). As to the kind of experiment: ELISA. A general note: In an ELISA, binding on a coated surface is turned into a signal by an enzyme label.

B1: Neumifil (HEX17: trimeric (hexavalent) form based on S. pneumoniae CBM40) (designed binder)
chain: GAMVIEKEDVETNASNGQRVDLSSELDKLKKLENATVHMEFKPDPKAPAFYNLFSVSSATKKDEYFTMAVYNNTATLEGRGSDGKQFYNNYNDAPLKVKPGQWNSVTFTVEKPTAELPKGRARLYVNGGLSRTSLRSGNFIKDMPDVTHVQIGATKRANNTVWGSNLQIRNLTVYNRALTPEEVQKRSGGGSGVIEKEDVETNASNGQRVDLSSELDKLKKLENATVHMEFKPDPKAPAFYNLFSVSSATKKDEYFTMAVYNNTATLEGRGSDGKQFYNNYNDAPLKVKPGQWNSVTFTVEKPTAELPKGRARLYVNGGLSRTSLRSGNFIKDMPDVTHVQIGATKRANNTVWGSNLQIRNLTVYNRALTPEEVQKRSGGSLGVPDFESDWFDVSSNSLYTLSHGLQRSPRRVVVEFARSSSPSTWNIVMPSYFNDGGHKGSGAQVEVGSLNIKLGTGAAVWGTGYFGGIDNSATTRFATGYYRVRAWI
Molecule B1 yielded a half-maximal effective concentration (EC50) of 0.17 µg/mL.

The record behind these values is US20230125561A1 (published 2023).
